Results from patent US20110293511A1, “SPECIFIC BINDING PROTEINS AND USES THEREOF” (priority 2009, published 2011).

Experiments:
[1] = target: wild-type EGFR (wtEGFR) (human) (UniProt P00533); assay: Scatchard, A431 cells
[2] = target: wild-type EGFR (wtEGFR) (human) (UniProt P00533); assay: Scatchard, 125I-labeled 528 on A431 cells
[3] = target: wild-type EGFR (wtEGFR) (human) (UniProt P00533); assay: immunohistochemistry on glioblastoma tissue; EGFR amplified, no de2-7 EGFR
de2-7 EGFR (human) = de2-7 EGFR (human) (UniProt P00533); assay: immunohistochemistry on glioblastoma tissue; EGFR amplified, de2-7 EGFR expressed

receptors per cell (receptors per cell) [1]: 2e+06
binding sites per cell (sites per cell) [2]: 2e+06
percent of immunoreactive cells (immunohistochemistry) [3]: > 75%
percent of immunoreactive cells (immunohistochemistry) (de2-7 EGFR (human)): > 75%
Substance: mAb528 (antibody)
